Reference: patent US20050267016A1, “CD-10 activated prodrug compounds” (priority 2001, published 2005)
pIC50: −log10 of the molar value. Read-outs that look alike come from different tables or passages of the source.

Key:
Namalwa cells (CD10pos) = experiment: cells; format: cell-based; conditions: for pIC50: 24 hours; for Ratio Ball-1:Namalwa: ratio of IC50
Description: Suspension cells, BALL-1, Ramos and Namalwa cells were cultured in RPMI media containing 10% heat inactivated fetal calf serum (FCS). On the day of the study, the cells were collected, washed and resuspended at a concentration of 0.5×10^6 cells/ml in RPMI containing 10% FCS. 100 µl of cell suspension was added to 96 well plates. […] Finally 10 μl of a 100 μCi/ml ^3H-thymidine was added per well and the plates were incubated for 24 hours. The plates were harvested using a 96 well Harvester (Packard Instruments) and counted on a Packard Top Count counter. Four parameter logistic curves were fitted to the ^3H-thymidine incorporation as a function of drug molarity using Prism software to determine IC50 values.

[1] = Metabolism and clearance in normal mice (plasma and urine, LC MS/MS); format: in vivo; conditions: for dose excreted: iv, 117 mg/kg
Description: The metabolism and clearance of Suc-Ile-Ala-Leu-Dox was studied in normal mice. The mice were administered Suc-Ile-Ala-Leu-Dox at a single intravenous bolus dose of 117 mg/kg. Plasma samples were obtained at 1 and 4 hours. Plasma samples of 100 μl were transferred to microcentrifuge tubes (1.5 mL) and an internal standard of daunorubicin (20 μL at 0.5 mg/ml) was added together with acetonitrile (400 μl). The tubes were capped and briefly vortexed followed by centrifugation at 14,000 rpm. 420 μl from each tube was removed and dried in vacuo. Each sample was reconstituted in 65 μl 20 mM aqueous ammonium formate pH 4.5 buffer (AF) containing acetonitrile (20%) prior to analysis by reverse phase liquid chromatography in combination with tandem mass spectrometry (LC MS/MS).
Urine was collected at 2 and 24 hours post administration from pairs of mice in metabolic cages. Urine samples were diluted with AF containing acetonitrile (20%) to give a target analyte concentration within the practical range of the LC MS/MS assay. 30 μl of each diluted sample was placed in an Eppendorf tube (1.5 ml) and an internal standard of daunorubicin (20 μL at 0.5 mg/ml) was added together with 50 μl of AF containing acetonitrile (20%). Each sample was then analyzed by LC MS/MS.
An Agilent HP1100 HPLC with DAD detector and Chemstation software was coupled to a PE Sciex API 365 mass spectrometer with an electrospray ion source. HPLC was performed on a TSK-Gel Super ODS, […], 4.6×50 mm (TosoHaas) reversed phase column equipped with a […] C18 guard disc (Higgins Analytical) and stainless steel frit (Upchurch Scientific). Chromatography was performed at room temperature. The flow rate was 0.5 ml/min. Injection volume was 50 μL. Gradient elution was performed using a mobile phase of 20 mM aqueous AF pH 4.5 buffer with increasing amounts of acetonitrile. The API 365 was operated at 365° C. in a multiple reaction monitoring mode, set to monitor specific analyte parent-daughter ion pairs. Integration of chromatograms was performed by MacQuant software (PE Sciex) and quantitation of each analyte obtained by comparison to previously obtained calibration curves. Daunorubicin was used as an internal standard in all cases.
For the calculation of percent of administered dose, plasma volume was estimated to be 40% of blood volume, which was calculated as 7% of animal's body weight. At 2 and 24 hours the parent compound was detected in urine at 3.9% and 15.0% of the administered dose, showing that the kidney is a major organ of excretion for the prodrug (FIG. 17).
Plasma samples were obtained at 1 and 4 hours from separate mice. Urine was collected at 2 and 24 hours post administration from pairs of mice in metabolic cages. The plasma and urine samples were prepared and analyzed as described in Example 17.

LNCaP xenografts = experiment: LNCaP xenograft in SCID mice, Q6DX2, equitoxic comparison (Example 27); format: in vivo, C.B-17.SCID mice
Description: All compounds except Suc-βAla-Leu-Ala-Leu-Dox (three levels) were dosed at two levels with the goal to get a dose response for all compounds.
Knowing that the LNCaP tumor bearing nude mice have weight loss, we chose very conservative dose levels for each compound estimated to be well-tolerated equitoxic doses based on earlier studies and SD-MTD results. The high dose level for repeat dosing is usually 80% of their SD-MTD, and the low dose level is 80% of the high dose level. Accordingly, groups of ten male CD17.SCID mice, subcutaneously injected with 2.5 million LNCaP cells, were treated intravenously with the compounds at the levels described in Table 22 at six day intervals for a total of two identical doses (Q6DX2).
LNCaP tumors grew well in SCID mice, but the SCID mice with LNCaP tumor xenografts experienced severe weight loss, as 80% of control mice had more than 25% of weight loss by the end of the study. Nevertheless, the efficacy of different treatments at approximately equitoxic levels were compared based on the time it took for 50% of mice to reach toxic weight loss and the total numbers of mice with toxic weight loss at the end of study.

normal ICR mice = experiment: Second single dose Maximum Tolerated Dose (SD-MTD) study, 49 days; conditions: for SD-MTD Molar Ratio (Dox=): relative to doxorubicin on a molar basis
Description: In a second single dose Maximum Tolerated Dose (SD-MTD) study, groups of five normal ICR mice were administered intravenous bolus doses of Suc-βAla-Leu-Ala-Leu-Dox. The mice were observed daily for 49 days and body weights measured twice weekly.
In a second single dose Maximum Tolerated Dose (SD-MTD) study, groups of five normal ICR mice were administered intravenous bolus doses of Suc-Leu-Ala-Leu-Dox. The mice were observed daily for 49 days and body weights measured twice weekly.
In a second single dose Maximum Tolerated Dose (SD-MTD) study, groups of five normal ICR mice were administered intravenously bolus doses of Suc-Ile-Ala-Leu-Dox. The mice were observed daily for 49 days and body weights measured twice weekly.
In a second single dose Maximum Tolerated Dose (SD-MTD) study, groups of five normal ICR mice were administered intravenous bolus doses of Suc-βAla-Ile-Ala-Leu-Dox. The mice were observed daily for 49 days and body weights measured twice weekly.

## COc1cccc2c1C(=O)c1c(O)c3c(c(O)c1C2=O)C[C@@](O)(C(=O)CO)C[C@@H]3O[C@H]1C[C@H](N)[C@H](O)[C@H](C)O1 [Doxorubicin, reference compound]
Namalwa cells (CD10pos)
  pIC50: 8.00
[1]; after Suc-Ile-Ala-Leu-Dox 117 mg/kg, collected 0-2 hours
  Urine (% adm. dose) 2 hr: 0.06 % adm. dose
[1]; after Suc-Ile-Ala-Leu-Dox 117 mg/kg, collected 2-24 hours
  Urine (% adm. dose) 24 hr: 0.36 % adm. dose
[1]; mouse, in vivo, 4 h
  Plasma (% adm. dose) 4 hr: 0.00 % adm. dose
LNCaP xenografts; 3 mg/kg Q6DX2
  % Weight Loss at the end of study: 60%
  Growth Inhibition: 29%
  Time: 50% Weight Loss: 36 days
LNCaP xenografts; 4 mg/kg Q6DX2
  Growth Inhibition: 29%
LNCaP xenografts; 4 mg/kg Q6DX2, mice with toxic weight loss
  % Weight Loss at the end of study: 80%
LNCaP xenografts; 4 mg/kg Q6DX2, time for 50% of mice to reach toxic weight loss
  Time: 50% Weight Loss: 33 days

## COc1cccc2c1C(=O)c1c(O)c3c(c(O)c1C2=O)C[C@@](O)(C(=O)CO)C[C@@H]3O[C@H]1C[C@H](NC(=O)[C@H](CC(C)C)NC(=O)[C@H](C)NC(=O)[C@H](CC(C)C)NC(=O)CCNC(=O)CCC(=O)O)[C@H](O)[C@H](C)O1 [Suc-βAla-Leu-Ala-Leu-Dox]
Namalwa cells (CD10pos)
  Ratio Ball-1:Namalwa: 3
Normal ICR mice; 75 mg/kg dose group, by Day 35
  mortality: 40%
LNCaP xenografts; 40 mg/kg Q6DX2
  Time: 50% Weight Loss: 33 days
  Time: 100% Weight Loss: 54 days
LNCaP xenografts; 50 mg/kg Q6DX2
  Time: 50% Weight Loss: 19 days
  Time: 100% Weight Loss: 40 days
LNCaP xenografts; 62 mg/kg Q6DX2
  Time: 50% Weight Loss: 15 days
  Time: 100% Weight Loss: 33 days

## CC[C@H](C)[C@H](NC(=O)CCNC(=O)CCC(=O)O)C(=O)N[C@@H](C)C(=O)N[C@@H](CC(C)C)C(=O)N[C@H]1C[C@H](O[C@H]2C[C@](O)(C(=O)CO)Cc3c(O)c4c(c(O)c32)C(=O)c2c(OC)cccc2C4=O)O[C@@H](C)[C@H]1O [Suc-βAla-Ile-Ala-Leu-Dox]
Namalwa cells (CD10pos)
  Ratio Ball-1:Namalwa: 172
Normal ICR mice; 100 mg/kg, by Day 21, groups of five
  animals euthanized due to weight loss or paralysis: three
Normal ICR mice
  SD-MTD Molar Ratio (Dox=): 2.6
[1]; mouse, in vivo, Urine (% adm. dose) 2 hr
  dose excreted: 12.7%
[1]; mouse, in vivo, Urine (% adm. dose) 24 hr
  dose excreted: 4.81%
LNCaP xenografts; 50 mg/kg Q6DX2
  % Weight Loss at the end of study: 80%
  Time: 50% Weight Loss: 33 days
LNCaP xenografts; 62 mg/kg Q6DX2
  Time: 50% Weight Loss: 12 days
  Time: 100% Weight Loss: 33 days

## CC[C@H](C)[C@H](NC(=O)CCC(=O)O)C(=O)N[C@@H](C)C(=O)N[C@@H](CC(C)C)C(=O)N[C@H]1C[C@H](O[C@H]2C[C@](O)(C(=O)CO)Cc3c(O)c4c(c(O)c32)C(=O)c2c(OC)cccc2C4=O)O[C@@H](C)[C@H]1O [Suc-Ile-Ala-Leu-Dox]
Namalwa cells (CD10pos)
  pIC50: 5.19
  Ratio Ball-1:Namalwa: 4
Normal ICR mice; intravenous bolus, Day 49
  SD-MTD: 94 mg/kg
Normal ICR mice
  SD-MTD Molar Ratio (Dox=): 3.5
[1]; mouse, in vivo, after Suc-Ile-Ala-Leu-Dox 117 mg/kg, collected 0-2 hours, read-out: Urine (% adm. dose) 2 hr
  dose excreted: 3.9%
[1]; mouse, in vivo, after Suc-Ile-Ala-Leu-Dox 117 mg/kg, collected 2-24 hours, read-out: Urine (% adm. dose) 24 hr
  dose excreted: 15%
LNCaP xenografts; 75 mg/kg Q6DX2
  Time: 50% Weight Loss: 26 days
  Time: 100% Weight Loss: 43 days
LNCaP xenografts; 94 mg/kg Q6DX2
  Time: 50% Weight Loss: 19 days
  Time: 100% Weight Loss: 36 days
